Tests used:
Assay type in all cases: cell-based, mouse
[1] = tested on: alveolar macrophages (AM); assay: Long-term liquid culture of alveolar macrophages in the presence of GM-CSF
Procedure: For culture of alveolar macrophages, alveolar lavages were pooled from ten 1 mL 37° C. BAL washes (PBS, 2 mM EDTA, 2% FBS (GE Healthcare) per mouse and stored on ice. RBC lysis was then performed at room temperature (RT) for 3 minutes (RBC Lysis Buffer, Invitrogen). Cells were plated at a density of at least 1.1 million cells per 10 cm bacterial petri dish (Greiner Bio-One) or NUNC non treated 6 well plates (>0.45-5*10^6 per well) in complete medium (RPMI, 10% FCS, 1% Pen/Strep, 1% Pyruvate, 1% Glutamate) supplemented with 1-2% GM-CSF supernatant from J558L cells transfected with murine GM-CSF cDNA. Medium was partially changed every two-three days. Cells were replated only at confluency and only at least one day after medium change. To avoid cell death during detachment, cells were detached with Accutase (StemCells Technologies) and 2 mM EGTA for 15 minutes at 37° C. without agitation or pipetting and careful monitored under the microscope for the detachment process. Only after a large number of cells started to round up and float, cells were carefully detached with a p1000 pipettte.
Cell Culture. […]

[2] = tested on: alveolar macrophages (AM); assay: In vitro BrdU incorporation by alveolar macrophages after stimulation with GM-CSF; conditions: cultured AM, 3 days after stimulation, 18 h BrdU pulse
Procedure: (§1) Cell cycle analysis. In vitro proliferation of macrophages was assessed using the Cell Proliferation ELISA (BrdU, colorimetric; Roche) according to manufacturer's instructions. In brief, 10-20 thousand freshly isolated macrophages were plated per 96 well in a tissue culture dish in complete medium (DMEM, 10% FCS, 1% Pen/Strep, 1% Pyruvate, 1% Glutamate). After macrophages had attached to the plastic, plating medium was replaced with complete medium containing the respective cytokine at indicated concentration. On day 2 after stimulation, BrdU was added to the culture and BrdU incorporation was assessed on day 3.

[3] = tested on: peritoneal macrophages (PM); assay: In vitro BrdU incorporation by peritoneal macrophages after stimulation with GM-CSF; conditions: cultured PM, 3 days after stimulation, 18 h BrdU pulse
Procedure: Peritoneal macrophages were collected by peritoneal washout using 10 mL PBS containing 2 mM EDTA (Sigma). Red cell lysis was performed (RBC Lysis Buffer, Invitrogen) and cells were filtered through a 70 um mesh before further processing. Medium changes occurred every 3-4 days.
as §1

B1: GM-CSF: cytokine growth factor for leukocytes; used as supernatant from J558L cells transfected with murine GM-CSF cDNA (protein, UniProt P01587 18-141, looked up)
Granulocyte-macrophage …: APTRSPITVTRPWKHVEAIKEALNLLDDMPVTLNEEVEVVSNEFSFKKLTCVQTRLKIFEQGLRGNFTKLKGALNMTASYYQTYCPPTPETDCETQVTTYADFIDSLKTFLTDIPFECKKPGQK
- duration of expansion of AM in long-term liquid culture [1]: several months
- BrdU incorporation in response to GM-CSF [2]: incorprorated BrdU
- BrdU incorporation in response to GM-CSF [3]: not PM incorprorated BrdU

From patent publication US20240000833A1, “METHODS FOR EXPANDING A POPULATION OF ALVEOLAR MACROPHAGES IN A LONG TERM CULTURE” (Institut National de la Santé et de la Recherche Médicale, priority 2015, published 2024)
